Measured values taken from patent US20260070961A1 (Takeda / Millennium, published 2026).

Key:
DENV-3 VLP [1] = molecular target: T1, DENV-3 VLP (Dengue virus serotype 3); assay: Luminex assay, VLP-conjugated MagPlex beads
T1 construct: also called dengue 3 VLP; DENV-VLP

DENV-3 VLP [2] = molecular target: T1, DENV-3 VLP; assay: BLI (Octet-HTX), IgG from supernatant captured on Protein A biosensor, 5 ug/mL DENV-VLP, 1:1 model
DENV3 Domain III protein = molecular target: T2, DENV3 Domain III protein (Dengue virus serotype 3); assay: BLI (Octet HTX), mAb coupled to AR2G biosensor, 20 ug/mL Domain III protein, response at 1200 sec
T2 construct: domain: Domain III; also called TDV3 Domain III

DENV-3 VLP [3] = molecular target: T1, DENV-3 VLP; assay: BLI (Octet-HTX), IgG from supernatant captured on Protein A biosensor, 5 ug/mL DENV-VLP

Binder	EC50 (DENV-3 VLP [1]) [µg/mL]	koff (DENV-3 VLP [2]) [s⁻¹]	Response (nm) (DENV3 Domain III protein)	response (DENV-3 VLP [3])
DENV3-5D7 (antibody, V domains shown, also called clone 5D7) VH: QSLEESGGDLVKPGASLTLTCTASGFSFSSGYDMCWVRQAPGKGLEWIACIYITDTGSSYYATWARGRFTISKTSSTSVTLQVTSLTAADTATYFCAKTNYGSGGFAFNLWGPGTLVTVSS VL: DVVMTQTPASVEARVGGTVTINCQASQSISNLLAWYQQKPGQPPKLLIYRASALESGVPSRFRGSGSGTEFTLTISDLECADAATYYCQCTYGGSSITNWAFGGGTEVVVK	0.025	< 2e-05	0.0178	0.984
DENV3-8D4 (antibody, V domains shown) VH: QEQLEESGGGLVKPGGTLTLTCTASGFSFSNVYYICWVRQAPGKGLEWIGCIGTGDGNTWYASWAKGRFTISKASSTTVILQVTSLTAADTATYFCARDIYSYDNTGVYTVPKLWGPGTLVTVSS VL: AAVLTQTPSPVSAAVGGTVSISCQSSESVYSNNRLAWYQQKPGQPPKLLIYRASTLESGVPSRFKGSGSGTEFTLTISDVRCDDAATYYCAGGYSGSSDKGFGGGTEVVVK	0.115	< 2e-05	0.248	1.51
DENV3-12H6 (antibody, V domains shown) VH: QEQLEESGGDLVKPEGSLTLTCKASGIDFSSSYWICWVRQAPGKGLEWIGCIYTGSSTTWYAAWAKGRFTISKPSSTTVTLQMTSLTAADTATYFCARFYDVGVYFNLWGPGTLVTVSS VL: AIVMTQTPSSKSVPVGDTVTINCQASESISSWLAWYQQKPGQPPKLLIYLASTLASGVPSRFKGSGSGTQFTLTISDVVCDDAATYYCAGYKSSVTDGFAFGGGTEVVVK	0.11	< 2e-05	0.0148	1.39
